Results from IntAct's records for PubMed 12354775.

B1: Protein naked cuticle (Drosophila melanogaster (Fruit fly)), Q9VVV9 (parent)
chain: MAGNIVKWWKHKILGGYKQFSVQECTTDSEELMYHQVRASSSCSAPPDLLLVSERDNNIQLRSPVVNIITTPPGNASGAGSKQQSHHQTNHHSSGRSHPGHTAHPQDVSSGGSHSKHLRISSTSNGKHGKYSNMQQQLPQDEDVVDAAATMQQQQHTGHAHSRHLHHHKEERIRLEEFTCDVSVEGGKSSQPLQFSFTFYDLDGHHGKITKDDIVGIVYTIYESIGKSVVVPHCGSKTINVRLTVSPEGKSKSQPVVPVPVAAGFSSSHASKLKKLPTGLAAMSKPLAGGGVGSGGASALTTSAGNRRQHRYRPRKLIKSDDEDDDSNSEKEKDAAHAPAADQPSGSGTKATGKSHHHQSQSARYHQKNNSRAEQCCTEQNTPDNGHNTYENMLNLKCCKPEVDQVDCPSHRQHHQSHPNHQMRQQDIYMKQATQRVKMLRRARKQKYQDHCLETRQRSLSVGNDSACPNRHLQLQQPPVGHPQPQSLNHKSASGSPPLGVGGGGDMMLDGVQLRQPRPHSLTPHQHQQQNQQQQQQQRKSAECWKSALNRNDLISIIRESMEKNRLCFQLNGKPQANVSPIRQPAAQQQPQQQQRQRCNTGSKIPTLITNHSPVAQQSPLSCSPPTAEPTTPSIPAAPPAIEVNGQQHHPTHPTHPSHHNHHEHPQPHIPIYHQQLAINPAVLAAQQTHNTAHNKLNLCGYDSFLHATICGGGAAAHSPPATPSNVATVQPIPKKSQKNLLQGYQRLEQSQQQQQQQRSSKDYKNYGNLIYAKLSEQLQQKDREQRRQRHKQQQHQMLQDQPKDASRSEQRPPTSNSSSAGSKIYGDAVECAHLLASEEEDLPPSPQLTSTPSKVVSTDTLIDLNDDVGEAVAEAVTEGGKQSLEAEESGQQVEVELDTSASSSMIHRYVHEHIHHHYHHFKEQQDV

Variants of: B1
Details: with dsh_drome dsh

Row | Variant | effect of a mutation on the interaction
1 | D201A | decreasing interaction
2 | D213V | decreasing interaction
